The supplement of paper PMC9170038

Test system: MS2 coat protein
Assay: apparent KD of MS2 coat protein; designed switch direction (-1 OFF switch, 1 ON switch): -1; higher = weaker reporter binding
Procedure, shortened: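 Designed RNA switches sharing common flanks were transcribed on Illumina chips by stalled E. coli RNA polymerase. They were titrated with SNAP-549-labelled MS2 coat protein, from 0.7 or 1.5 nM doubling to 3 µM, in Tris-HCl pH 7.5 buffer with KCl, MgCl2, BSA, DTT, tRNA and Tween-20. Titrations ran without input, with 200 uM small-molecule ligand, or with an oligonucleotide input. The apparent KD of each design is the median over its clusters, after curve-fitting of normalised cluster fluorescence.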

[1] = Eterna round: R95, input ligand: microRNA oligo, concentration not stated
[2] = Eterna round: R95, input ligand: FMN 200 uM
[3] = Eterna round: R95, input ligand: none
[4] = input ligand: microRNA oligo, concentration not stated

## GGCUAGUGAGGAUAUACGUGCAGUCCUCAGUCGCCAGUCGGACAUGAGGAUCACCCAUGUAGAAGGUAUCGGCA [Beesraat] (puzzle: Exclusion 2)
[1]
  apparent KD of MS2 coat protein: 30.2 nM

## AAGUACUACAAGCUUAGGGACAUGAGGAUCACCCAUGUUCGUCUUAUUGAUCUAGGUACGCUGACGUACCUAGAUCU [Mat - Sensor v3 - turn-off var 1 - JL Mod - D9] (puzzle: Sensor v3, turn-off variant 1)
[2]
  apparent KD of MS2 coat protein: 15.2 nM
[1]
  apparent KD of MS2 coat protein: 58.6 nM
[3]
  apparent KD of MS2 coat protein: 13.2 nM

## GCUGGAGCAGGAUAUUCAAUAUCACACAUGAGGAUCACCCAUGUCCAGCGAAAGCUGGAGGGAGAAGGGCUCUAGC [Mat - Exclusion 5 - Eli mod - D98] (puzzle: Exclusion 5)
[2]
  apparent KD of MS2 coat protein: 17.6 nM
[1]
  apparent KD of MS2 coat protein: 60.4 nM
[3]
  apparent KD of MS2 coat protein: 76 nM

## AUGCUCCGUGUAGGAUAUCGCCGUAUUACUCGGCGAGAAGGACAUGAGGAUCACCCAUGUAUGUUAUUAUCACGUGUGGCGCGC [Design 46] (Eterna round: R96, puzzle: Exclusion NG 1)
Input ligand: FMN 200 uM
  apparent KD of MS2 coat protein: 35.2 nM
[4]
  apparent KD of MS2 coat protein: 15.4 nM
Input ligand: none
  apparent KD of MS2 coat protein: 18.6 nM

## UUCUUGGCAGGAUAUGCUCUUUUAGACAUGAGGAUCACCCAUGUGUUUAUUCUUUUUUUUGCAGAAGGGCCUUAAU [JR_E5_Sub044] (puzzle: Exclusion 5)
[1]
  apparent KD of MS2 coat protein: 87.9 nM

## CUUUUGUGAGGAUAUUAGUAGUAAAUAAAUAAAAUUAUUACUGAGAAGGCACAUGAGGAUCACCCAUGUUCCUC [salish99_ex4_r3_062] (puzzle: Exclusion 4)
[1]
  apparent KD of MS2 coat protein: 35.1 nM

## CAGUACUGAGGAUAUACAUGAGGAUCACCCAUGUGUUCCAGCUAGGAAACUAGCAAUAGUAGAAGGCAGUACUG [salish99_ex3_r3_090x] (puzzle: Exclusion 3)
[1]
  apparent KD of MS2 coat protein: 21.3 nM

## UAUCCACAUGAGGAUCACCCAUGUCAGGAUAUGCACUAUGGGCCAAGUGGUCCAAGGAGCAGAAGGGACGAGAG [Eternabot (L2) Solution 25] (Eterna round: R97, puzzle: Exclusion 1)
Input ligand: FMN 200 uM
  apparent KD of MS2 coat protein: 28.9 nM
Input ligand: none
  apparent KD of MS2 coat protein: 15.2 nM

## CCGGCUUAGCAGGAUAUAGGAGUCGAUAGACACCUAGAAGGGCUAACAUGAGGAUCACCCAUGUGUCCUACCGG [Mod of Eli 2 - Jieux - Exclusion 6] (Eterna round: R97, puzzle: Exclusion 6)
Input ligand: FMN 200 uM
  apparent KD of MS2 coat protein: 102 nM
Input ligand: none
  apparent KD of MS2 coat protein: 47.6 nM

## UUAAUUAAUUUAAUAUAAGAUCACAUGAGGAUCACCCAUGUAUAGGAUAUCAGCUCGUUUAGAGCUGAGAAGGAUACAUAAUAU [ExNG3/2-B2] (Eterna round: R96, puzzle: Exclusion NG 3)
Input ligand: FMN 200 uM
  apparent KD of MS2 coat protein: 292 nM
[4]
  apparent KD of MS2 coat protein: 328 nM
Input ligand: none
  apparent KD of MS2 coat protein: 230 nM

## AGAGAAUAGACAGGAUAUGAGAAUAGAUAGAGCUCAGAAGGGUCACAUGAGGAUCACCCAUGUGAAGUCUUGAGGCUGCGUGGA [Prohibition 19 - Jieux - Exclusion NG 1] (Eterna round: R96, puzzle: Exclusion NG 1)
Input ligand: FMN 200 uM
  apparent KD of MS2 coat protein: 14.6 nM
[4]
  apparent KD of MS2 coat protein: 10.9 nM
Input ligand: none
  apparent KD of MS2 coat protein: 18.3 nM

## UAUUCACAUGAGGAUCACCCAUGUCAGGAUAUAUUCGAUAUAUGGAAACAUAUAUCGAAUAGAAGGGACUAGCG [Jieuxxlusion 10 - Jieux - Exclusion 1] (Eterna round: R97, puzzle: Exclusion 1)
Input ligand: FMN 200 uM
  apparent KD of MS2 coat protein: 54.6 nM

## AAGAAACAUGAGGAUCACCCAUGUGAGGAUAUGAUGAAGAAAAGAAAAGAAAGAAGACUCAGAAGGCACAAAGG [salish99-ex1_r3_070] (puzzle: Exclusion 1)
[2]
  apparent KD of MS2 coat protein: 77.1 nM
[1]
  apparent KD of MS2 coat protein: 45.3 nM
[3]
  apparent KD of MS2 coat protein: 47.4 nM

## AAUAGCAAGUAAGAUCCUAACAUGAGGAUCACCCAUGUGCUCGUCUUGUAAAGUACUAUCACGAAAGUGAUAGUACA [Sensor 3, v1 - 50] (puzzle: Sensor v3, turn-off variant 1)
[2]
  apparent KD of MS2 coat protein: 108 nM
[1]
  apparent KD of MS2 coat protein: 69.4 nM
[3]
  apparent KD of MS2 coat protein: 146 nM

## AAUGAUUGAUGAGGAUAUUGUGGUGAAACACGACGAGAAGGCAUAUGUCACAUGAGGAUCACCCAUGUGAGCCUUGUGGAUAUA [Ex NG1 #66] (Eterna round: R96, puzzle: Exclusion NG 1)
Input ligand: FMN 200 uM
  apparent KD of MS2 coat protein: 115 nM
[4]
  apparent KD of MS2 coat protein: 45.9 nM
Input ligand: none
  apparent KD of MS2 coat protein: 57.9 nM

## GGUUGGCGAGGAUAUACAUGAGGAUCACCCAUGUGAGGGAAAAAAGUGAGAACGAAAAGUAGAAGGCGCUGACG [salish99_ex3_r3_063] (puzzle: Exclusion 3)
[2]
  apparent KD of MS2 coat protein: 10.5 nM
[1]
  apparent KD of MS2 coat protein: 54 nM
[3]
  apparent KD of MS2 coat protein: 80.5 nM

## GGAAGAGAGAUAGGAUAUUAAAGGAAGAUGGUGAGAGAGACAUGAGGAUCACCCAUGUAAAGGAAUAAGAAGGGUCAGAAGGAA [EXNG2 V2 g] (Eterna round: R96, puzzle: Exclusion NG 2)
Input ligand: FMN 200 uM
  apparent KD of MS2 coat protein: 137 nM
[4]
  apparent KD of MS2 coat protein: 104 nM
Input ligand: none
  apparent KD of MS2 coat protein: 184 nM

## CCUCGUAACUAGGAUAUCCGAAAUAAGCGAGGAGGAGAAGGAGUUACAUGAGGAUCACCCAUGUGAUAUAAAGA [Orisxe] (puzzle: Exclusion 6)
[2]
  apparent KD of MS2 coat protein: 46.9 nM
[1]
  apparent KD of MS2 coat protein: 15.5 nM
[3]
  apparent KD of MS2 coat protein: 17.4 nM

## UCCAUCCCUGUGAGGAUAUCGUCCGUUUUUUGUUCCGAGAAGGCACAUGAGGAUCACCCAUGUUUUUUGUUUUU [JR_BMOE4_Sub077] (puzzle: Brourd's mod of Exclusion 4)
[1]
  apparent KD of MS2 coat protein: 30.2 nM

## AUUUAAUUUAAUAAGAUCACAUGAGGAUCACCCAUGUUAUAAUAGGAUAUCAGCUCGAUUAGAGCUGAGAAGGAUUAUAACAUG [ExNG3/9-A1] (Eterna round: R96, puzzle: Exclusion NG 3)
Input ligand: FMN 200 uM
  apparent KD of MS2 coat protein: 35.3 nM
[4]
  apparent KD of MS2 coat protein: 20.1 nM
Input ligand: none
  apparent KD of MS2 coat protein: 28.8 nM

## UGAUCUUUUGUUAGGAUAUGCUGUUGUUUUCAACAGCAGAAGGGACAUGAGGAUCACCCAUGUCUUGUCAUAAA [Magic-04] (puzzle: Brourd's mod of Exclusion 4)
[1]
  apparent KD of MS2 coat protein: 12.7 nM

## GCAGCAUAGUAUACUUACUGUUACAUGAGGAUCACCCAUGUACAGGAUAUGGUCUGGAUUACAGGCCAGAAGGGUACAAGCUGC [Eli exng3 - 024] (Eterna round: R96, puzzle: Exclusion NG 3)
Input ligand: FMN 200 uM
  apparent KD of MS2 coat protein: 10.3 nM
[4]
  apparent KD of MS2 coat protein: 8.12 nM
Input ligand: none
  apparent KD of MS2 coat protein: 11.7 nM

## GGUCAGAUGGUAGGAUAUCCAUAUCGAGUGACCCUUUCAUAACAUGAGGAUCACCCAUGUCGGUGGGAGAAGGGCCGUAUGGCG [salish99_ExNG02_R04_022] (Eterna round: R96, puzzle: Exclusion NG 2)
Input ligand: FMN 200 uM
  apparent KD of MS2 coat protein: 69.8 nM
[4]
  apparent KD of MS2 coat protein: 34.9 nM
Input ligand: none
  apparent KD of MS2 coat protein: 51.3 nM

## GAGACAUGAGGAUCACCCAUGUGUGGUCCAAGGCAUGUCGUCGAGGAUAUGCAGGACGUCGUCUUGCAGAAGGCGACUAAAUAC [Teatarti] (Eterna round: R96, puzzle: Exclusion NG 3)
Input ligand: FMN 200 uM
  apparent KD of MS2 coat protein: 17.8 nM
[4]
  apparent KD of MS2 coat protein: 19.5 nM
Input ligand: none
  apparent KD of MS2 coat protein: 105 nM

## GUUUCGAGACGGAGAUCCGACAUGAGGAUCACCCAUGUCUCGCAAGCUUUUUGCUCGUCUUAUACUCCUCUGUUCUC [Elimod 46 - Jieux - Sensor, turn-off variant 1] (Eterna round: R97, puzzle: Sensor, turn-off variant 1)
Input ligand: FMN 200 uM
  apparent KD of MS2 coat protein: 20.9 nM
Input ligand: none
  apparent KD of MS2 coat protein: 21.9 nM

## UUAGCUUCAGGAUAUACAGUGGGCUGGGAUCUAAAGAUCAAACAUGAGGAUCACCCAUGUAGAAGGGAACGGAA [Eternabot (L2) Solution 32] (Eterna round: R97, puzzle: Exclusion 2)
Input ligand: FMN 200 uM
  apparent KD of MS2 coat protein: 380 nM
Input ligand: none
  apparent KD of MS2 coat protein: 145 nM

## UUUGUUUAUGUAGGAUAUGCCUGGCGUGCCUUUGCAGAAGGACAUGAGGAUCACCCAUGUAACAUGAGGCUCACCCAUGUCGCA [salish99_ExNG1_r04_110] (Eterna round: R96, puzzle: Exclusion NG 1)
Input ligand: FMN 200 uM
  apparent KD of MS2 coat protein: 682 nM
[4]
  apparent KD of MS2 coat protein: 453 nM
Input ligand: none
  apparent KD of MS2 coat protein: 645 nM

## GUCCUCGUGGCGCCUAAACACAUGAGGAUCACCCAUGUACAGGCUUUUUGCCGUCUUAUAAUAAAACCGAGGAUACG [Zaveonqu] (puzzle: Sensor v3, turn-off variant 1)
[2]
  apparent KD of MS2 coat protein: 20.3 nM
[1]
  apparent KD of MS2 coat protein: 121 nM
[3]
  apparent KD of MS2 coat protein: 20.9 nM

## AAACCCUGAGGAUAUACAUAACAACAAAUCCUCACGUGCCAACAUGAGGAUCACCCAUGUAGAAGGCAGGCCCA [Bigegedi] (puzzle: Exclusion 2)
[2]
  apparent KD of MS2 coat protein: 48.4 nM
[1]
  apparent KD of MS2 coat protein: 15.8 nM
[3]
  apparent KD of MS2 coat protein: 15.3 nM

## GCACGAAGUGUAGGAUAUCUGUGCGAUUAGCUCAGAGAAGGACACAUGAGGAUCACCCAUGUGUUUCACGGAAACGAAACGUGC [Eli exng1 - 054] (Eterna round: R96, puzzle: Exclusion NG 1)
Input ligand: FMN 200 uM
  apparent KD of MS2 coat protein: 10.7 nM
[4]
  apparent KD of MS2 coat protein: 9.54 nM
Input ligand: none
  apparent KD of MS2 coat protein: 16.2 nM

## AAGAAACAUGAGGAUCACCCAUGUCAGGAUAUCUCGAAAAGCAUAGAAAUAUGCGAAGAGAGAAGGGACAAGAA [ChP Ext 10-04-2015] (puzzle: Exclusion 1)
[1]
  apparent KD of MS2 coat protein: 56.1 nM

## GCGCACCUACCAAAAGGUAGGCCCACAUGAGGAUCACCCAUGUAGGAUAUCGAUUGCUUUGCAGUCGAGAAGGACGUGAUGCGC [JL ENG3 3.80 Mod 17] (Eterna round: R96, puzzle: Exclusion NG 3)
Input ligand: FMN 200 uM
  apparent KD of MS2 coat protein: 25.7 nM
[4]
  apparent KD of MS2 coat protein: 11.6 nM
Input ligand: none
  apparent KD of MS2 coat protein: 18.3 nM

## CUUCACCCACCAGAGCACACCCACAUACCUGCUCAGGUGACAUGAGGAUCACCCAUGUUUUUUGCCCGUCUUAUCUU [Tilevere] (puzzle: Sensor v3, turn-off variant 2)
[2]
  apparent KD of MS2 coat protein: 31.6 nM
[1]
  apparent KD of MS2 coat protein: 144 nM
[3]
  apparent KD of MS2 coat protein: 33.9 nM
